From patent publication US20240051999A1 (JOHN INNES CENTRE, published 2024)

What was measured:
[1] = target: T1, vWA (von Willebrand factor type A) domain of Arabidopsis thaliana RPN10 (Arabidopsis thaliana, UniProt P55034 1-193); experiment: His-tag pull-down (iMAC), His-sumo-tagged vWA as bait
T1 construct: In Y2H it was a fusion to a GAL4 domain; also called AtvWA; AtRPN10 vWA domain
T1 sequence: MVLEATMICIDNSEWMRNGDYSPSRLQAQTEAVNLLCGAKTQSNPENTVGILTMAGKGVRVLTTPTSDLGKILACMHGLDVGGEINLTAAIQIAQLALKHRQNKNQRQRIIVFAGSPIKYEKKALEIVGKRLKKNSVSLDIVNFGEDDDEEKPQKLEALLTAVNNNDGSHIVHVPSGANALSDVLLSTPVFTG

[2] = target: T2, UIM domain (C-terminal half with ubiquitin-interacting motifs) of Arabidopsis thaliana RPN10 (Arabidopsis thaliana, UniProt P55034 194-386); experiment: yeast two-hybrid
T2 construct: domain: UIM domain
T2 sequence: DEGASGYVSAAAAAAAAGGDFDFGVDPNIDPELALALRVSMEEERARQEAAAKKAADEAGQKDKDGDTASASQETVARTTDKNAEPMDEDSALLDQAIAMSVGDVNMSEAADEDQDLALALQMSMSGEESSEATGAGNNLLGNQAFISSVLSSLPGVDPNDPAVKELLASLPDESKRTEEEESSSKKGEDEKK

B1: ZnF (zinc-finger) domain of Arabidopsis thaliana SPL5 (other)
chain: SRLCQVDRCTVNLTEAKQYYRRHRVCEVHAKASAATVAGVRQRFCQQCSRFHELPEFDEAKRSCRRRLAGHNERRRKI
notes: domain: ZnF domain; Recombinant protein from E. coli; also called ZnF domain of AtSPL5
B1: no binding [1].

B2: SAP05 (effector protein from AY-WB phytoplasma) (other)
chain: APNEEFVGDMRIVNVNLSNIDILKKHETFKKYFDFTLTGPRYNGNIAEFAMIWKIKNPPLNLLGVFFDDGTRDDEDDKYILEELKQIGNGAKNMYIFWQYEQK
notes: also called SAP05_AYWB; His-tagged SAP05
B2: no binding [2].
